Measurements: patent US20140336119A1 (INSTITUT PASTEUR, published 2014)

How the values were obtained:
[1] = target: T1, Muc2 (human, glycosylated, secreted in colonic mucus) (human, UniProt Q02817 21-5289, limits assumed, native glycosylation, with sulfated oligosaccharides); experiment: staining of PFA-fixed; FIG. 31 is titled 'Identification of Muc2 in neutrophile granules'
T1 construct: Native secreted mucin in mucus extracts or tissue, not a purified recombinant protein; also called glycoprotein Muc2
Procedure: FIG. 31. Identification of Muc2 in neutrophile granules. Human neutrophil (PMN) granule staining using Cy5-MUB40-1, Cy5-MUB40-2, Cy5-MUB40-3, Cy5-MUB40-4 peptides. Schematic description of the Cy5-conjugated peptides. PMN were purified from healthy donor blood samples and fixed in the presence of 4% PFA. Fluorescent staining of human colonic mucus was performed by the addition of 1 μg/mL of the Cy5-conjugated peptides (Green) with Dapi (1:100) (Blue) and Phalloidin-RRX (1:1000) (Red). Image acquisition was performed using a fluorescent confocal microscope (see Methods).

[2] = target: Muc5ac (human, in colonic mucus extract) (human, UniProt P98088 28-5654, limits assumed); experiment: pulldown on avidin-agarose beads, dot blot immunodetection
Procedure: (§1) Pulldown assays were performed in the presence of 600 μg biot-MUB₇₀ bound to 500 μL Avidin-agarose beads (Thermo Scientific) in a Phosphate Buffer pH=8 buffer for 1 h at 4° C. After 3 washes, 10 mg soluble human colonic mucus extract were incubated with the loaded beads for 2 h at 4° C. After 3 washes, beads were boiled in the presence of 1× Laemli buffer. As a negative control, Avidin-agarose beads were loaded with 15 μg biotin (Sigma-Aldrich) and processed using the same procedure. Experiments were performed on two independent occasions.
(§2) In order to identify a MUB₇₀ ligand present in the soluble extracts of human colonic mucus, biot-MUB₇₀, a biotinylated form of MUB₇₀, was synthesized (see Methods) in order to perform pulldown assays. Biot-MUB₇₀ was incubated with avidin beads and further with human colonic mucus extracts (produced in vitro from differentiated HT-29 MTX cells, see Methods). Biotin only was used as a negative control. […] A dot blot assay was then performed, focusing on secreted mucins, which are the major components of colonic mucus. Muc2 was immunodectected in the eluted fraction, and not in the negative control, and Muc5ac, Muc5b or Muc6, all detected in the input were absent from the eluted fraction (FIG. 4A). […] Processing a chemical deglycosylation step on the soluble mucus extract (see Methods) prior to pulldown assay abolished the interaction between Muc2 and biot-MUB₇₀ (FIG. 4A). […] [12].

[3] = target: Muc6 (human, in colonic mucus extract) (human, UniProt Q6W4X9 23-2439, limits assumed); experiment: as above
Procedure: as §1, §2

[4] = target: Muc5b (human, in colonic mucus extract) (human, UniProt Q9HC84 26-5762, limits assumed); experiment: as above
Procedure: as §1, §2

[5] = target: T2, Muc2 of mouse colonic mucus (mouse, UniProt Q80Z19 21-4576, limits assumed); experiment: fluorescent staining of PFA-fixed mouse colon, confocal microscopy
T2 construct: The experiment stained colonic mucus; also called murine Muc2
T2 sequence (Q80Z19 21-4576 limits assumed): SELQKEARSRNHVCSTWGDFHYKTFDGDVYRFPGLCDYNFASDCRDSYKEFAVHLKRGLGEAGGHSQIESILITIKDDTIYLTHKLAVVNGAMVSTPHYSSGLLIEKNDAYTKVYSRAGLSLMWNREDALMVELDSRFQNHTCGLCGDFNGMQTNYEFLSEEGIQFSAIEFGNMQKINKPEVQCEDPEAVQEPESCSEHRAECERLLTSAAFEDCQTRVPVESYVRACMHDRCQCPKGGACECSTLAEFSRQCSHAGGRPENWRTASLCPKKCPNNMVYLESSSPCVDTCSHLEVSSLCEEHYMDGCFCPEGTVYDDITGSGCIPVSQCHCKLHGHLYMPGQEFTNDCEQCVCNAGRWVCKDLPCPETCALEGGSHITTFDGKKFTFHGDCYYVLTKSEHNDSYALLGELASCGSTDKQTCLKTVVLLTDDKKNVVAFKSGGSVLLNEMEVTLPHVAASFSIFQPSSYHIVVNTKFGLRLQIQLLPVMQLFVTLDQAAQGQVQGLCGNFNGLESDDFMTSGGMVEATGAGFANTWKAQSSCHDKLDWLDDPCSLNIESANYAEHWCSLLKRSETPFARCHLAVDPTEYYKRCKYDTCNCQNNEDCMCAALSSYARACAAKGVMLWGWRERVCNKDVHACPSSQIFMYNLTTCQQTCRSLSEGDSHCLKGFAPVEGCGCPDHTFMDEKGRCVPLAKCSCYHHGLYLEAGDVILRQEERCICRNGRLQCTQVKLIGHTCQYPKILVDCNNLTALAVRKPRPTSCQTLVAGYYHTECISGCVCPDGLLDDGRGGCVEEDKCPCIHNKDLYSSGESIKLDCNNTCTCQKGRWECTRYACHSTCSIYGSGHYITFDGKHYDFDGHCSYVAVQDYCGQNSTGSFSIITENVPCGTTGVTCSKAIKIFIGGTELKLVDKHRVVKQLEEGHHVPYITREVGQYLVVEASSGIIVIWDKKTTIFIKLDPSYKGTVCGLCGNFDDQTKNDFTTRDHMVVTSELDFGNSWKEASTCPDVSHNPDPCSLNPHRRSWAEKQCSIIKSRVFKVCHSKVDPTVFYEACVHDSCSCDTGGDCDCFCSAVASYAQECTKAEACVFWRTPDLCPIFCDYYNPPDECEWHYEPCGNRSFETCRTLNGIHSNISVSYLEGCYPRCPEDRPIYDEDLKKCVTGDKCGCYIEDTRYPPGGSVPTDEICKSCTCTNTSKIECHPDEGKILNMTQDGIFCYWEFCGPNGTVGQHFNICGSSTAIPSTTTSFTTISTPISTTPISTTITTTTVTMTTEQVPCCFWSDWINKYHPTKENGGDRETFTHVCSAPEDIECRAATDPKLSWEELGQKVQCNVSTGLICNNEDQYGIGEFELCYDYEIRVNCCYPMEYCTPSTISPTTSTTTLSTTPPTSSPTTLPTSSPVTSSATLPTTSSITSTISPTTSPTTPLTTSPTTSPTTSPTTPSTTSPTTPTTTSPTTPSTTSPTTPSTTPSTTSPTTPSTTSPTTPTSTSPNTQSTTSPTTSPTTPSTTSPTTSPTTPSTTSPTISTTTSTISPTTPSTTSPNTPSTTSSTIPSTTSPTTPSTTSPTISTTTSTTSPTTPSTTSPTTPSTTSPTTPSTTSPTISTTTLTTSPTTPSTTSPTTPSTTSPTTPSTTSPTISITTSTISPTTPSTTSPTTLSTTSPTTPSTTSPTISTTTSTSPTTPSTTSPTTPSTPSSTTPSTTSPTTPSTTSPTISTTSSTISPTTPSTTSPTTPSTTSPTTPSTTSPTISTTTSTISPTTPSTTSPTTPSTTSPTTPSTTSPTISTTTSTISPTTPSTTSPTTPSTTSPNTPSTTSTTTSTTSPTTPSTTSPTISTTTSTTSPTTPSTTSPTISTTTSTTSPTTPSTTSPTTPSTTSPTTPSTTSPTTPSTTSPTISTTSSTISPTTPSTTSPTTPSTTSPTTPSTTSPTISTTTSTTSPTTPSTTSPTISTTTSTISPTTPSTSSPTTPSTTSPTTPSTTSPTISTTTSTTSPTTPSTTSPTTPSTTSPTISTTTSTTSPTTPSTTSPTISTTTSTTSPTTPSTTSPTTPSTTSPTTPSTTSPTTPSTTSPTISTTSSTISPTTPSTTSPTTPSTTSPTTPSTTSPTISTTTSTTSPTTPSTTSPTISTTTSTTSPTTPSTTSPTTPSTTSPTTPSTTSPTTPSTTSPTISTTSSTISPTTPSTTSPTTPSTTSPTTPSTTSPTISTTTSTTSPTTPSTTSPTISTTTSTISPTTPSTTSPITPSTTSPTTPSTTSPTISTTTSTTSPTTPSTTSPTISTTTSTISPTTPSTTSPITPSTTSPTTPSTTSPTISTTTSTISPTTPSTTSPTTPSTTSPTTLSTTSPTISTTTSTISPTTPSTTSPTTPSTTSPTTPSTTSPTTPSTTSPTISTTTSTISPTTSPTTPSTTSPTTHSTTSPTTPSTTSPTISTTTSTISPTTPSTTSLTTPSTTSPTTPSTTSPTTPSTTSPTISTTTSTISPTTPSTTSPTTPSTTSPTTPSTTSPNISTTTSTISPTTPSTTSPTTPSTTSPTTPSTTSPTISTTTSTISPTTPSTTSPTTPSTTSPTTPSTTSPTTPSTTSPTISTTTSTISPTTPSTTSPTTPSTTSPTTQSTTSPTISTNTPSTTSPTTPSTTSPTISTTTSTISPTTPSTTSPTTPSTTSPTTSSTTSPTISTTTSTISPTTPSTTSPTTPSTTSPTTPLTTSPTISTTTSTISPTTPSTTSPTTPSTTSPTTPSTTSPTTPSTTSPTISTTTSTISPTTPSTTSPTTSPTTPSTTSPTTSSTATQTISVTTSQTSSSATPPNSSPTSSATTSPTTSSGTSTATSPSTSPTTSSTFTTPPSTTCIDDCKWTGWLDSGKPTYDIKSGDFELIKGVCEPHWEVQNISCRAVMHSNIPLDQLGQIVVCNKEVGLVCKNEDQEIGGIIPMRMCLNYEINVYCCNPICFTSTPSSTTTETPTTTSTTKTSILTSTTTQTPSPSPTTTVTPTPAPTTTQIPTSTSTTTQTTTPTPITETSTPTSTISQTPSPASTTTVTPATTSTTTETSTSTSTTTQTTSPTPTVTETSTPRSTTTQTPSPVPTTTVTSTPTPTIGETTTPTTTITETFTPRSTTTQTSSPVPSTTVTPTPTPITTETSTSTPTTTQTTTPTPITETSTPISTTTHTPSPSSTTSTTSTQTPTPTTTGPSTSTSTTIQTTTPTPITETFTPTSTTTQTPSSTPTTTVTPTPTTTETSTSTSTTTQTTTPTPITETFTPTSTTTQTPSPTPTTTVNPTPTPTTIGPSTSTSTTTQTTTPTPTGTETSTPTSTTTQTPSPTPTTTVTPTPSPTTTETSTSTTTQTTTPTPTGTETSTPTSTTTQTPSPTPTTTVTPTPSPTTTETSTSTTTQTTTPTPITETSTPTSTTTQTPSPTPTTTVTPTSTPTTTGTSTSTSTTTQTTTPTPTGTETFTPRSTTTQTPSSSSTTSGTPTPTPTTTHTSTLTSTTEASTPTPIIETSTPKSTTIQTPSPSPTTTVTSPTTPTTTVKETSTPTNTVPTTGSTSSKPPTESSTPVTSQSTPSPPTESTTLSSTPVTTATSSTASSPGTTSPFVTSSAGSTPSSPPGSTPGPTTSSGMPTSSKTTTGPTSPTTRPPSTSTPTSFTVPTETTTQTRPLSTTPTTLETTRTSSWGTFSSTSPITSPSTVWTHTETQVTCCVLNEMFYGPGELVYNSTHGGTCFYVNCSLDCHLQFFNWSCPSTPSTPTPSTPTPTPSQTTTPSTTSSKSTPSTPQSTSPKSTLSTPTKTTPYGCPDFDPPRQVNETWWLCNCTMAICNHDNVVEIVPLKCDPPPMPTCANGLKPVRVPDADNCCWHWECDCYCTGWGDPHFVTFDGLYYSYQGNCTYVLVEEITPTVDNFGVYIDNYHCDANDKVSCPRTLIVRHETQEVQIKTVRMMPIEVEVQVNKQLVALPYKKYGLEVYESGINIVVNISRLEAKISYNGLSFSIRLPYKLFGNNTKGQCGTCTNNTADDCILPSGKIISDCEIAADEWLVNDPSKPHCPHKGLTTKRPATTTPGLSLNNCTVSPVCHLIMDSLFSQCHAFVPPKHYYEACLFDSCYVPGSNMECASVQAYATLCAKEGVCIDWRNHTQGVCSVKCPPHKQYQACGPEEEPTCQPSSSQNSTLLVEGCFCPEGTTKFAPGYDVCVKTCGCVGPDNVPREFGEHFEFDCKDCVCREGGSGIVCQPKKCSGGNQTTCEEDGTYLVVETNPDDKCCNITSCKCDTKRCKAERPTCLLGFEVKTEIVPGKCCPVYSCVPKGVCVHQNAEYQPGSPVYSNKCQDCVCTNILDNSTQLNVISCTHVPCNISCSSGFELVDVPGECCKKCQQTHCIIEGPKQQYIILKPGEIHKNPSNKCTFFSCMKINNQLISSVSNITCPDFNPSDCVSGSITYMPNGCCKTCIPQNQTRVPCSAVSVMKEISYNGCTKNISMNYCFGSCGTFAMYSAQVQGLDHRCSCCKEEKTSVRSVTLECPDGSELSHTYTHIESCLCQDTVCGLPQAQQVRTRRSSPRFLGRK
Procedure: FIG. 11. Mucus staining using Cy5-MUB₇₀ on fixed tissues. (A) Guinea pig colon, (B) rabbit ileum and (C) mouse colon were fixed in PFA 4%. Immunofluorescent staining was performed using Cy5-MUB₇₀ (1 μg/mL) (blue). Actin is stained in red (Phall.-RRX), Muc2 is stained in green (α-Muc2). Observations were performed using a confocal microscope. Bar is 50 μm.

[6] = target: T1, Muc2 (human, glycosylated, secreted in …); experiment: fluorescent staining of fixed human colonic mucus; MUB40 probes said to display the same properties as the MUB70 probe
Procedure: FIG. 22. Schematic description of the Cy5-MUB40-1, Cy5-MUB40-2, Cy5-MUB40-3, Cy5-MUB40-4 peptides (SEQ ID NOS 62 to 65). Fluorescent staining of human colonic mucus was performed by the addition of 1 μg/mL of the corresponding Cy5-conjugated peptides with Phalloidin-RRX (1:100) on formol fixed, paraffin embedded samples. Image acquisition was performed using a fluorescent confocal microscope (see Methods).
FIG. 23 Comparative staining analysis of human colonic goblet cells using Cy5-MUB70 and Cy5-MUB40-1. Fluorescent staining of human colonic mucus was performed by the addition of 1 μg/mL of the corresponding Cy5-conjugated peptides with Phalloidin-RRX (1:100) on formol fixed, paraffin embedded samples. Image acquisition was performed using a fluorescent confocal microscope (see Methods).

B1: Cy5-MUB40-3 (peptide)
peptide: Ac-C(Cy5 maleimide)DQMLRQDDLDGYTDETIPYSTAEGIKKFEGDGYELFKDNF-NH2
notes: also called MUB40-Cy5#3; Cy5-labeled MUB40-3
[1]
  binding result: binds

B2: Cy5-MUB40-4 (peptide)
peptide: Ac-C(Cy5 maleimide)VHVQYIDGETDQMLRQDDLDGYTDETIPYSTAEGIKKFEG-NH2
notes: also called MUB40-Cy5#4; Cy5-labeled MUB40-4
[1]
  binding result: binds

B3: Cy5-MUB40-2 (peptide)
peptide: Ac-C(Cy5 maleimide)GYTDETIPYSTAEGIKKFEGDGYELFKDNFPAGEKFDNDD-NH2
notes: also called MUB40-Cy5#2; Cy5-labeled MUB40-2
[1]
  binding result: binds

B4: biot-MUB70 (biotinylated MUB70) (peptide)
peptide: CVHVQYIDGETDQMLRQDDLDGYTDETIPYSTAEGIKKFEGDGYELFKDNFPAGEKFDNDDTNDQFYTVIF
modifications: maleimide-PEG2-biotin on the added N-terminal Cys
notes: Chemically synthesized; also called biotinylated derivative of MUB70
[2]
  binding result: no binding
[3]
  binding result: no binding
[4]
  binding result: no binding

B5: Cy5-MUB70 (peptide)
peptide: CVHVQYIDGETDQMLRQDDLDGYTDETIPYSTAEGIKKFEGDGYELFKDNFPAGEKFDNDDTNDQFYTVIF
modifications: Cy5 mono maleimide on the added N-terminal Cys
notes: Chemically synthesized; also called MUB70-Cy5; Cy5-labeled MUB
[5]
  binding result: no binding (tested: 1 µg/mL)

B6: Cy5-MUB40-1 (peptide)
peptide: Ac-C(Cy5 maleimide)TAEGIKKFEGDGYELFKDNFPAGEKFDNDDTNDQFYTVIF-NH2
notes: also called MUB40-Cy5#1; Cy5-labeled MUB40-1
[6]
  binding result: binds
